Test results taken from US20200024330A1.

Assays:
Experiment in all cases: cell-based or functional assay
[1] = target: HIV-1 92BR020 envelope glycoprotein (Env) on pseudovirus (HIV-1)
[2] = target: HIV-1 92RW020 envelope glycoprotein (Env) on pseudovirus (HIV-1)
[3] = target: HIV-1 92TH021 envelope glycoprotein (Env) on pseudovirus (HIV-1)
[4] = target: HIV-1 92UG024 envelope glycoprotein (Env) on pseudovirus (HIV-1)
[5] = target: HIV-1 97ZA012 envelope glycoprotein (Env) on pseudovirus (HIV-1)
[6] = target: HIV-1 Env of isolate JRFL (HIV-1)
[7] = target: HIV-1 Env of isolate MGRM-AE-004 (HIV-1)
[8] = target: HIV-1 Env of isolate MGRM-AE-005 (HIV-1)
[9] = target: HIV-1 Env of isolate MGRM-AE-006 (HIV-1)
[10] = target: HIV-1 Env of isolate MGRM-AE-007 (HIV-1)
[11] = target: HIV-1 Env of isolate MGRM-AE-008 (HIV-1)
[12] = target: HIV-1 Env of isolate MGRM-AG-001 (HIV-1)
[13] = target: HIV-1 Env of isolate MGRM-AG-002 (HIV-1)
[14] = target: HIV-1 Env of isolate MGRM-AG-003 (HIV-1)
[15] = target: HIV-1 Env of isolate MGRM-AG-005 (HIV-1)
[16] = target: HIV-1 Env of isolate MGRM-AG-006 (HIV-1)
[17] = target: HIV-1 Env of isolate MGRM-AG-008 (HIV-1)
[18] = target: HIV-1 Env of isolate MGRM-AG-009 (HIV-1)
[19] = target: HIV-1 Env of isolate MGRM-AG-011 (HIV-1)
[20] = target: HIV-1 Env of isolate MGRM-AG-012 (HIV-1)
[21] = target: HIV-1 Env of isolate MGRM-AG-013 (HIV-1)
[22] = target: HIV-1 Env of isolate MGRM-Chronic-B-010 (HIV-1)
[23] = target: HIV-1 Env of isolate MGRM-Chronic-B-011 (HIV-1)
[24] = target: HIV-1 Env of isolate MGRM-Chronic-B-012 (HIV-1)
[25] = target: HIV-1 Env of isolate MGRM-Chronic-B-017 (HIV-1)
[26] = target: HIV-1 Env of isolate MGRM-Chronic-B-018 (HIV-1)
[27] = target: HIV-1 Env of isolate MGRM-Chronic-B-020 (HIV-1)
[28] = target: HIV-1 Env of isolate MGRM-Chronic-B-023 (HIV-1)
[29] = target: HIV-1 Env of isolate MGRM-Chronic-B-024 (HIV-1)
[30] = target: HIV-1 Env of isolate MGRM-D-004 (clade D) (HIV-1)
[31] = target: HIV-1 Env of isolate MGRM-G-001 (HIV-1)
[32] = target: HIV-1 Env of isolate MGRM-G-004 (HIV-1)
[33] = target: HIV-1 Env of isolate MGRM-G-006 (HIV-1)
[34] = target: HIV-1 Env of isolate MGRM-G-009 (HIV-1)
[35] = target: HIV-1 MGRM-F1-015 Env (pseudovirus) (HIV-1)
[36] = target: HIV-1 NL43 envelope glycoprotein (Env) on pseudovirus (HIV-1)
[37] = target: aMLV envelope (negative control pseudovirus)

Substance	IC50 (µg/ml), pseudovirus neutralization [5]	IC50 (µg/ml), pseudovirus neutralization [6]	IC50 (µg/ml), pseudovirus neutralization [7]	IC50 (µg/ml), pseudovirus neutralization [8]	IC50 (µg/ml), pseudovirus neutralization [9]	IC50 (µg/ml), pseudovirus neutralization [10]	IC50 (µg/ml), pseudovirus neutralization [11]	IC50 (µg/ml), pseudovirus neutralization [12]	IC50 (µg/ml), pseudovirus neutralization [13]	IC50 (µg/ml), pseudovirus neutralization [14]	IC50 (µg/ml), pseudovirus neutralization [15]	IC50 (µg/ml), pseudovirus neutralization [16]	IC50 (µg/ml), pseudovirus neutralization [17]	IC50 (µg/ml), pseudovirus neutralization [18]	IC50 (µg/ml), pseudovirus neutralization [19]	IC50 (µg/ml), pseudovirus neutralization [20]	IC50 (µg/ml), pseudovirus neutralization [21]	IC50 (µg/ml), pseudovirus neutralization [22]	IC50 (µg/ml), pseudovirus neutralization [23]	IC50 (µg/ml), pseudovirus neutralization [24]	other results
2F5 (antibody)	> 50 µg/mL	3.54 µg/mL	0.98 µg/mL	0.14 µg/mL	0.18 µg/mL	0.07 µg/mL	> 50 µg/mL	0.75 µg/mL	0.54 µg/mL	0.14 µg/mL	> 50 µg/mL	0.85 µg/mL	0.54 µg/mL	24.8 µg/mL	> 50 µg/mL	0.33 µg/mL	1.79 µg/mL	0.96 µg/mL	0.81 µg/mL	17.6 µg/mL	IC90 (pseudovirus neutralization) [1]: > 50 µg/mL; IC90 (pseudovirus neutralization) [2]: 27.7 µg/mL; IC90 (pseudovirus neutralization) [3]: 18.8 µg/mL; IC90 (pseudovirus neutralization) [4]: 34.4 µg/mL; IC50 (µg/ml), pseudovirus neutralization [25]: > 50 µg/mL; IC50 (µg/ml), pseudovirus neutralization [26]: 10.8 µg/mL; IC50 (µg/ml), pseudovirus neutralization [27]: 0.78 µg/mL; IC50 (µg/ml), pseudovirus neutralization [28]: 0.1 µg/mL; IC50 (µg/ml), pseudovirus neutralization [29]: > 50 µg/mL; IC50 (µg/ml), pseudovirus neutralization [30]: 2.3 µg/mL; IC50 (µg/ml), pseudovirus neutralization [31]: 4.1 µg/mL; IC50 (µg/ml), pseudovirus neutralization [32]: > 50 µg/mL; IC50 (µg/ml), pseudovirus neutralization [33]: 1.33 µg/mL; IC50 (µg/ml), pseudovirus neutralization [34]: 7.21 µg/mL; IC50 (µg/ml), pseudovirus neutralization [35]: 0.1 µg/mL; IC90 (pseudovirus neutralization) [36]: 19.3 µg/mL; IC50 (µg/ml), pseudovirus neutralization [37]: > 50 µg/mL
2G12 (antibody)	> 50 µg/mL	1.45 µg/mL	> 50 µg/mL	> 50 µg/mL	> 50 µg/mL	> 50 µg/mL	> 50 µg/mL	0.69 µg/mL	0.54 µg/mL	> 50 µg/mL	> 50 µg/mL	3.92 µg/mL	> 50 µg/mL	> 50 µg/mL	> 50 µg/mL	1.94 µg/mL	0.95 µg/mL	1.5 µg/mL	> 50 µg/mL	0.22 µg/mL	IC90 (pseudovirus neutralization) [1]: 24.1 µg/mL; IC90 (pseudovirus neutralization) [2]: 6.23 µg/mL; IC90 (pseudovirus neutralization) [3]: > 50 µg/mL; IC90 (pseudovirus neutralization) [4]: 7.57 µg/mL; IC50 (µg/ml), pseudovirus neutralization [25]: > 50 µg/mL; IC50 (µg/ml), pseudovirus neutralization [26]: > 50 µg/mL; IC50 (µg/ml), pseudovirus neutralization [27]: 0.2 µg/mL; IC50 (µg/ml), pseudovirus neutralization [28]: 0.16 µg/mL; IC50 (µg/ml), pseudovirus neutralization [29]: > 50 µg/mL; IC50 (µg/ml), pseudovirus neutralization [30]: > 50 µg/mL; IC50 (µg/ml), pseudovirus neutralization [31]: > 50 µg/mL; IC50 (µg/ml), pseudovirus neutralization [32]: > 50 µg/mL; IC50 (µg/ml), pseudovirus neutralization [33]: > 50 µg/mL; IC50 (µg/ml), pseudovirus neutralization [34]: > 50 µg/mL; IC50 (µg/ml), pseudovirus neutralization [35]: > 50 µg/mL; IC90 (pseudovirus neutralization) [36]: 15.8 µg/mL; IC50 (µg/ml), pseudovirus neutralization [37]: > 50 µg/mL
1495_C14 (PGC14) (antibody)	> 50 µg/mL	> 50 µg/mL	> 50 µg/mL	> 50 µg/mL	> 50 µg/mL	> 50 µg/mL	> 50 µg/mL	> 50 µg/mL	> 50 µg/mL	> 50 µg/mL	> 50 µg/mL	> 50 µg/mL	45 µg/mL	> 50 µg/mL	> 50 µg/mL	> 50 µg/mL	> 50 µg/mL	27 µg/mL	> 50 µg/mL	> 50 µg/mL	IC50 (µg/ml), pseudovirus neutralization [25]: > 50 µg/mL; IC50 (µg/ml), pseudovirus neutralization [26]: > 50 µg/mL; IC50 (µg/ml), pseudovirus neutralization [27]: > 50 µg/mL; IC50 (µg/ml), pseudovirus neutralization [28]: > 50 µg/mL; IC50 (µg/ml), pseudovirus neutralization [29]: > 50 µg/mL; IC50 (µg/ml), pseudovirus neutralization [30]: > 50 µg/mL; IC50 (µg/ml), pseudovirus neutralization [31]: > 50 µg/mL; IC50 (µg/ml), pseudovirus neutralization [32]: > 50 µg/mL; IC50 (µg/ml), pseudovirus neutralization [33]: > 50 µg/mL; IC50 (µg/ml), pseudovirus neutralization [34]: > 50 µg/mL; IC50 (µg/ml), pseudovirus neutralization [35]: > 50 µg/mL; IC50 (µg/ml), pseudovirus neutralization [37]: > 50 µg/mL
